Results published in patent publication EP0251446B1, “Non-human Carbonyl hydrolase mutants, DNA sequences and vectors encoding same and hosts transformed with said vectors” (GENENCOR INTERNATIONAL, INC., priority 1986, dated 1988).
Numbering of substitutions follows the chain as printed. Names may count otherwise.

Key:
Assay type in all cases: biochemical, B. amyloliquefaciens
[1] = substrate: CSCC[C@H](NC(=O)[C@@H]1CCCN1C(=O)[C@H](C)NC(=O)[C@H](C)NC(=O)CCC(=O)O)C(=O)Nc1ccc([N+](=O)[O-])cc1; assay: Kinetics of p-nitroanilide substrate hydrolysis, S156; settings: other: Table XIV, 156 Ser / 166 Gly; value in parentheses; synthetic substrate with label as P-1 amino acid; 37.0 °C
Source text: (§1) Wild-type subtilisin was purified from B. subtilis culture supernatants expressing the B. amyloliquefaciens subtilisin gene (Wells, J.A., et al. (1983) Nucleic Acids Res. 11, 7911-7925) as previously described (Estell, D.A., et al. (1985) J. Biol. Chem. 260, 6518-6521). Details of the synthesis of tetrapeptide substrates having the form succinyl-L-AlaL-AlaL-ProL-[X]-p-nitroanilide (where X is the P1 amino acid) are described by DelMar, E.G., et al. (1979) Anal. Biochem. 99, 316-320. Kinetic parameters, Km(M) and kcat-(s-^1) were measured using a modified progress curve analysis (Estell, D.A., et al. (1985) J. Biol. Chem. 260, 6518-6521). Briefly, plots of rate versus product concentration were fit to the differential form of the rate equation using a non-linear regression algorithm. Errors in kcat and Km for all values reported are less than five percent. The various substrates in Table VIII are ranged in order of decreasing hydrophobicity. Nozaki, Y. (1971), J. Biol. Chem. 246, 2211-2217; Tanford C. (1978) Science 200, 1012).
(§2) Construction of position 156 single mutants were prepared by ligation of the three fragments (1-3) indicated at the bottom of Figure 21. Fragment 3, containing the carboxy-terminal portion of the subtilisin gene including the wild type position 166 codon, was isolated as a 610 bp Sacl-BamHI fragment. Fragment 1 contained the vector sequences, as well as the amino-terminal sequences of the subtilisin gene through codon 151. To produce fragment 1, a unique Kpnl site at codon 152 was introduced into the wild type subtilisin sequence from pS4.5. Site-directed mutagenesis in M13 employed a primer having the sequence 5'-TA-GTC-GTT-GCG-GTA-CCC-GGT-AAC-GAA-3' to produce the mutation. Enrichment for the mutant sequence was accomplished by restriction with Kpnl, purification and self ligation. The mutant sequence containing the Kpnl site was confirmed by direct plasmid sequencing to give pV152. pV152 (-1 µg) was digested with Kpnl and treated with 2 units of DNA polymerase I large fragment (Klenow fragment from Boeringer-Mannheim) plus 50 µM deoxynucleotide triphosphates at 37°C for 30 min. This created a blunt end that terminated with codon 151. The DNA was extracted with 1:1 volumes phenol and CHC13 and DNA in the aqueous phase was precipitated by addition of 0.1 volumes 5M ammonium acetate and two volumes ethanol. After centrifugation and washing the DNA pellet with 70% ethanol, the DNA was lyophilized. DNA was digested with BamHl and the 4.6kb piece (fragment 1) was purified by acrylamide gel electrophoresis followed by electroelution. […] The top strand was synthesized to contain a glutamine codon, and the complementary bottom strand coded for serine at 156. Ligation of heterophosphorylated cassettes leads to a large and favorable bias for the phosphorylated over the non-phosphorylated oligonucleotide sequence in the final segrated plasmid product. Therefore, to obtain Q156 the top strand was phosphorylated, and annealed to the non-phosphorylated bottom strand prior to ligation. Similarly, to obtain S156 the bottom strand was phosphorylated and annealed to the non-phosphorylated top strand. Mutant sequences were isolated after ligation and transformation, and were confirmed by restriction analysis and DNA sequencing as before. To express variant subtilisins, plasmids were transformed into a subtilisin-neutral protease deletion mutant of B. subtilis, BG2036, as previously described. Cultures were fermented in shake flasks for 24 h at 37 ° C in LB media containing […] chloramphenicol and subtilisin was purified from culture supernatants as described. Purity of subtilisin was greater than 95% as judged by SDS PAGE.
(§3) These mutant plasmids designated pS156 and pQ156 and mutant subtilisins designated S156 and Q156 were analyzed with the above synthetic substrates where P-1 comprised the amino acids Glu, Gln, Met and Lys. The results of this analyses are presented in Example 9. […]

[2] = substrate: C[C@H](NC(=O)CCC(=O)O)C(=O)N[C@@H](C)C(=O)N1CCC[C@H]1C(=O)N[C@@H](CCC(=O)O)C(=O)Nc1ccc([N+](=O)[O-])cc1; assay: as above; settings: 37.0 °C
Source text: as §1, §2, §3

[3] = substrate: C[C@H](NC(=O)CCC(=O)O)C(=O)N[C@@H](C)C(=O)N1CCC[C@H]1C(=O)N[C@@H](CCC(N)=O)C(=O)Nc1ccc([N+](=O)[O-])cc1; assay: as above; settings: other: Table XIV, 156 Ser / 166 Gly; value in parentheses; synthetic substrate with label as P-1 amino acid; 37.0 °C
Source text: as §1, §2, §3

[4] = substrate: C[C@H](NC(=O)CCC(=O)O)C(=O)N[C@@H](C)C(=O)N1CCC[C@H]1C(=O)N[C@@H](CCCCN)C(=O)Nc1ccc([N+](=O)[O-])cc1; assay: as above; settings: other: Table XIV, 156 Ser / 166 Gly; value in parentheses; synthetic substrate with label as P-1 amino acid; 37.0 °C
Source text: as §1, §2, §3

[5] = substrate: C[C@H](NC(=O)CCC(=O)O)C(=O)N[C@@H](C)C(=O)N1CCC[C@H]1C(=O)N[C@@H](Cc1ccccc1)C(=O)Nc1ccc([N+](=O)[O-])cc1; assay: as above; settings: other: Table XIII, S156; synthetic substrate with label as P-1 residue; 37.0 °C
Source text: as §1, §2, §3

[6] = substrate: CSCC[C@H](NC(=O)[C@@H]1CCCN1C(=O)[C@H](C)NC(=O)[C@H](C)NC(=O)CCC(=O)O)C(=O)Nc1ccc([N+](=O)[O-])cc1; assay: Kinetics of p-nitroanilide substrate hydrolysis, R166; settings: other: Table XIV, 156 Glu / 166 Arg; value in parentheses; synthetic substrate with label as P-1 amino acid
Source text: as §1
(§4) The construction of subtilisin mutants containing the substitution of the ionic amino acids Asp, Asn, Gln, Lys and Ang are disclosed in EPO Publication No. 0130756. The present example describes the construction of the mutant subtilisin containing Glu at position 166 (E166) and presents substrate specificity data on these mutants. Further data on position 166 and 156 single and double mutants is presented infra.
(§5) Each of these mutants was analyzed with the tetrapeptide substrates, succinyl-L-AlaL-AlaProL-X-p-nitroanilide, where X was Phe, Ala and Glu.

[7] = substrate: C[C@H](NC(=O)CCC(=O)O)C(=O)N[C@@H](C)C(=O)N1CCC[C@H]1C(=O)N[C@@H](CCC(=O)O)C(=O)Nc1ccc([N+](=O)[O-])cc1; assay: as above; settings: other: Table XIV, 156 Glu / 166 Arg; value in parentheses; synthetic substrate with label as P-1 amino acid
Source text: as §1, §4, §5

[8] = substrate: C[C@H](NC(=O)CCC(=O)O)C(=O)N[C@@H](C)C(=O)N1CCC[C@H]1C(=O)N[C@@H](CCC(N)=O)C(=O)Nc1ccc([N+](=O)[O-])cc1; assay: as above; settings: other: Table XIV, 156 Glu / 166 Arg; value in parentheses; synthetic substrate with label as P-1 amino acid
Source text: as §1, §4, §5

[9] = substrate: C[C@H](NC(=O)CCC(=O)O)C(=O)N[C@@H](C)C(=O)N1CCC[C@H]1C(=O)N[C@@H](CCCCN)C(=O)Nc1ccc([N+](=O)[O-])cc1; assay: as above; settings: other: Table XIV, 156 Glu / 166 Arg; value in parentheses; synthetic substrate with label as P-1 amino acid
Source text: as §1, §4, §5

[10] = substrate: C[C@H](NC(=O)CCC(=O)O)C(=O)N[C@@H](C)C(=O)N1CCC[C@H]1C(=O)N[C@@H](CCC(=O)O)C(=O)Nc1ccc([N+](=O)[O-])cc1; assay: Kinetics of p-nitroanilide substrate hydrolysis, K166
Source text: as §1, §4, §5
(§6) K166 is a common replacement amino acid in the 156/166 mutants described herein. The replacement of Lys for GIy166 was achieved by using the synthetic DNA cassette at the top right of Figure 21 which contained the triplet AAA for NNN. This produced fragment 2 with Lys substituting for GIy166.
(§7) These mutants, the single mutant K166, and the S156 and Q156 mutants of Example 8 were analyzed for substitute specificity against synthetic polypeptides containing Phe or Glu as the P-1 substrate residue.

[11] = substrate: C[C@H](NC(=O)CCC(=O)O)C(=O)N[C@@H](C)C(=O)N1CCC[C@H]1C(=O)N[C@@H](Cc1ccccc1)C(=O)Nc1ccc([N+](=O)[O-])cc1; assay: as above; settings: K166
Source text: as §1, §4, §5, §6, §7

[12] = substrate: CSCC[C@H](NC(=O)[C@@H]1CCCN1C(=O)[C@H](C)NC(=O)[C@H](C)NC(=O)CCC(=O)O)C(=O)Nc1ccc([N+](=O)[O-])cc1; assay: as above; settings: other: Table XIV, 156 Glu / 166 Lys; value in parentheses; synthetic substrate with label as P-1 amino acid
[13] = substrate: C[C@H](NC(=O)CCC(=O)O)C(=O)N[C@@H](C)C(=O)N1CCC[C@H]1C(=O)N[C@@H](CCC(N)=O)C(=O)Nc1ccc([N+](=O)[O-])cc1; assay: as above; settings: other: Table XIV, 156 Glu / 166 Lys; value in parentheses; synthetic substrate with label as P-1 amino acid
[14] = substrate: C[C@H](NC(=O)CCC(=O)O)C(=O)N[C@@H](C)C(=O)N1CCC[C@H]1C(=O)N[C@@H](CCCCN)C(=O)Nc1ccc([N+](=O)[O-])cc1; assay: as above; settings: other: Table XIV, 156 Glu / 166 Lys; value in parentheses; synthetic substrate with label as P-1 amino acid
[15] = other: Table XIII, S156, synthetic substrate with label as P-1 residue
[16] = other: Table XIII, K166, synthetic substrate with label as P-1 residue
[17] = other: Table XIII, synthetic substrate with label as P-1 residue

B1: B. amyloliquefaciens subtilisin variant S156 (Glu156 to Ser) (Bacillus amyloliquefaciens; E263S) (protein)
chain: AQSVPYGVSQIKAPALHSQGYTGSNVKVAVIDSGIDSSHPDLKVAGGASMVPSETNPFQDNNSHGTHVAGTVAALNNSIGVLGVAPSASLYAVKVLGADGSGQYSWIINGIEWAIANNMDVINMSLGGPSGSAALKAAVDKAVASGVVVVAAAGNSGTSGSSSTVGYPGKYPSVIAVGAVDSSNQRASFSSVGPELDVMAPGVSIQSTLPGNKYGAYNGTSMASPHVAGAAALILSKHPNWTNTQVRSSLENTTTKLGDSFYYGKGLINVQAAAQ
notes: at various amino acid residues within the mature form of the subtilisin molecule; made in house; host or cells: Bacillus subtilis BG2036
Km [1]: 28.2 µM
Km [2, 15]: 1800 µM
kcat [2, 15]: 0.40 s-^1
Km ([2]; other: Table XIV, 156 Ser / 166 Gly, value in parentheses, synthetic substrate with label as P-1 amino acid): 1860 µM
Km [3]: 209 µM
Km [4]: 1820 µM
Km [5]: 47 µM
kcat [5]: 34.00 s-^1
kcat/Km [5]: 730000 M⁻¹ s⁻¹

B2: B. amyloliquefaciens subtilisin variant R166 (Gly166 to Arg) (Bacillus amyloliquefaciens; G273R) (protein)
chain: B1 chain with S156E, G166R
notes: as for B1
Km [6]: 60.3 µM
Km [7]: 501 µM
Km [8]: 316 µM
Km [9]: 1580 µM

B3: B. amyloliquefaciens subtilisin variant K166 (Gly166 to Lys) (Bacillus amyloliquefaciens; G273K) (protein)
chain: B1 chain with S156E, G166K
notes: as for B1
Km [10, 16]: 56 µM
kcat [10, 16]: 0.70 s-^1
kcat/Km [10, 16]: 12000 M⁻¹ s⁻¹
Km ([10]; other: Table XIV, 156 Glu / 166 Lys, value in parentheses, synthetic substrate with label as P-1 amino acid): 56.2 µM
Km [11, 17]: 40 µM
kcat [11, 17]: 20.00 s-^1
kcat/Km [11, 17]: 520000 M⁻¹ s⁻¹
Km ([11]; other: Table XIX): 37 µM
kcat ([11]; other: Table XIX): 21 s-^1
Km [12]: 35.5 µM
Km [13]: 132 µM
Km [14]: 1170 µM
